Columns and labels:
[1] = molecular target: the molecule itself; experiment: mass photometry; Cdc13 alone diluted in PBS, 11.25 nM protein, room temperature
Cdc13 WT [2] = molecular target: T1, Cdc13 WT (Saccharomyces cerevisiae, UniProt P32797 1-924); experiment: mass photometry; one and two dimers per ssDNA; binding buffer; 25 mM HEPES pH 8.0, 50 mM NaOAc, 150 mM NaCl, 7.5 mM MgCl2 (1x DNA-binding buffer); DDE incubation 30 C, 8% native gel; mass photometry at room temperature after 30 C incubation; BLI buffer details not in material; conditions: protein: recombinant; chain copies: 2
T1 sequence: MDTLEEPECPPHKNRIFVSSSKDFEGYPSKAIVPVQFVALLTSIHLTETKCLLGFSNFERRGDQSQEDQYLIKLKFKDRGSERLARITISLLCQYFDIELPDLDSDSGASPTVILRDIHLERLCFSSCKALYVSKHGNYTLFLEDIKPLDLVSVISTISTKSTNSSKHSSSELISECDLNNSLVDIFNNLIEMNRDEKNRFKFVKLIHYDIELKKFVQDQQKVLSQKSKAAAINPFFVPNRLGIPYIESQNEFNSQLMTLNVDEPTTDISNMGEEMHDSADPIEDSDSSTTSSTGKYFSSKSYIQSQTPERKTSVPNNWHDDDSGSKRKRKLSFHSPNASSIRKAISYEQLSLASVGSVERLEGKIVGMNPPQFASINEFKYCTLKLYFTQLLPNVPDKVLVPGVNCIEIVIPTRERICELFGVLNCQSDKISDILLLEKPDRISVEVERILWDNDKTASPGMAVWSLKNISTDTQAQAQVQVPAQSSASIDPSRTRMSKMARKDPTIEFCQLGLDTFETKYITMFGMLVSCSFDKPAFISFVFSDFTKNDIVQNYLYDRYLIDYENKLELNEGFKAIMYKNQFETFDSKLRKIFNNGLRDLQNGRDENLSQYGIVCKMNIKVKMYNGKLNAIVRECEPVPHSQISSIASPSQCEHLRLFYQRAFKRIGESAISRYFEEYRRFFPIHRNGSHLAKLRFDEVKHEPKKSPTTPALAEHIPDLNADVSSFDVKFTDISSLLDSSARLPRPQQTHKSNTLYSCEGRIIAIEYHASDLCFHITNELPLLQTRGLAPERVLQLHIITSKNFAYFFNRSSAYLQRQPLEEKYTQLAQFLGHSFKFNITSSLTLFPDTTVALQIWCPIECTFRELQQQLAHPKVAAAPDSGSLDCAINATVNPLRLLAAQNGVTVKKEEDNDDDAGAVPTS

Cdc13-L91R [3] = molecular target: T2, Cdc13-L91R (Saccharomyces cerevisiae, UniProt P32797 1-924, L91R); experiment: mass photometry; small population with two monomers per ssDNA; binding buffer; 25 mM HEPES pH 8.0, 50 mM NaOAc, 150 mM NaCl, 7.5 mM MgCl2 (1x DNA-binding buffer); DDE incubation 30 C, 8% native gel; mass photometry at room temperature after 30 C incubation; BLI buffer details not in material; conditions: protein: recombinant
T2 sequence: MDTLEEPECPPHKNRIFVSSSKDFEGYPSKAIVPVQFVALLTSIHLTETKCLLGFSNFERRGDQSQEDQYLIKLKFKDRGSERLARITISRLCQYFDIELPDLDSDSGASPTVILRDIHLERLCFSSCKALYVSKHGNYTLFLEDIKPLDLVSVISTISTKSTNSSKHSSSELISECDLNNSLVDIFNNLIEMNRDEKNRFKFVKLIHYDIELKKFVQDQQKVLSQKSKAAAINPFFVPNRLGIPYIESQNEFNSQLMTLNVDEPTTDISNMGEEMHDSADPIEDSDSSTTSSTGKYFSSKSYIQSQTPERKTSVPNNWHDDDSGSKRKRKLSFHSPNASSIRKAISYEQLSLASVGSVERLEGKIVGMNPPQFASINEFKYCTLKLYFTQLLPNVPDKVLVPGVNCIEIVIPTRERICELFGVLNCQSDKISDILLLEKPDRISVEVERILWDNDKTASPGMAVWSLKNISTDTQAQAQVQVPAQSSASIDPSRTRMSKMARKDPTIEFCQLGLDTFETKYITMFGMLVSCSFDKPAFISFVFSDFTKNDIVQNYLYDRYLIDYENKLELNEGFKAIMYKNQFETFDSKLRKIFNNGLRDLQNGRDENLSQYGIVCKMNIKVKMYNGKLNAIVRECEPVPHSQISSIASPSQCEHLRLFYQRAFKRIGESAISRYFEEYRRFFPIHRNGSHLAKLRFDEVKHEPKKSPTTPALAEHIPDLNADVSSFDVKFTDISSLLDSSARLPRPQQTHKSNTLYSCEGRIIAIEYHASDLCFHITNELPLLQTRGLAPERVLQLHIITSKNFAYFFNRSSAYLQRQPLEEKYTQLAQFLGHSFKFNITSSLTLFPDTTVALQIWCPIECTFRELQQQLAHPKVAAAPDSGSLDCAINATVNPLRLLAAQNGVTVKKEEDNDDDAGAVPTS

Cdc13-L91R [4] = molecular target: T2, Cdc13-L91R; experiment: competition EMSA (DDE assay); EC50 for displacing 2 nM prebound IR800-Tel30G; 3.75 nM monomer; 30 C; 25 mM HEPES pH 8.0, 50 mM NaOAc, 150 mM NaCl, 7.5 mM MgCl2 (1x DNA-binding buffer); DDE incubation 30 C, 8% native gel; mass photometry at room temperature after 30 C incubation; BLI buffer details not in material; conditions: protein: recombinant; label: 5' IRDye700
Cdc13 WT [5] = molecular target: T1, Cdc13 WT; experiment: competition EMSA (DDE assay); EC50 for displacing 2 nM prebound IR800-Tel30G; 3.75 nM dimer; 30 C; value introduced 'as reported (9)', assay also run here; 25 mM HEPES pH 8.0, 50 mM NaOAc, 150 mM NaCl, 7.5 mM MgCl2 (1x DNA-binding buffer); DDE incubation 30 C, 8% native gel; mass photometry at room temperature after 30 C incubation; BLI buffer details not in material; conditions: protein: recombinant; chain copies: 2; label: 5' IRDye700

B1: Cdc13 (wild type, recombinant) (natural protein, S. cerevisiae, UniProt P32797 1-924, looked up)
chain: MDTLEEPECPPHKNRIFVSSSKDFEGYPSKAIVPVQFVALLTSIHLTETKCLLGFSNFERRGDQSQEDQYLIKLKFKDRGSERLARITISLLCQYFDIELPDLDSDSGASPTVILRDIHLERLCFSSCKALYVSKHGNYTLFLEDIKPLDLVSVISTISTKSTNSSKHSSSELISECDLNNSLVDIFNNLIEMNRDEKNRFKFVKLIHYDIELKKFVQDQQKVLSQKSKAAAINPFFVPNRLGIPYIESQNEFNSQLMTLNVDEPTTDISNMGEEMHDSADPIEDSDSSTTSSTGKYFSSKSYIQSQTPERKTSVPNNWHDDDSGSKRKRKLSFHSPNASSIRKAISYEQLSLASVGSVERLEGKIVGMNPPQFASINEFKYCTLKLYFTQLLPNVPDKVLVPGVNCIEIVIPTRERICELFGVLNCQSDKISDILLLEKPDRISVEVERILWDNDKTASPGMAVWSLKNISTDTQAQAQVQVPAQSSASIDPSRTRMSKMARKDPTIEFCQLGLDTFETKYITMFGMLVSCSFDKPAFISFVFSDFTKNDIVQNYLYDRYLIDYENKLELNEGFKAIMYKNQFETFDSKLRKIFNNGLRDLQNGRDENLSQYGIVCKMNIKVKMYNGKLNAIVRECEPVPHSQISSIASPSQCEHLRLFYQRAFKRIGESAISRYFEEYRRFFPIHRNGSHLAKLRFDEVKHEPKKSPTTPALAEHIPDLNADVSSFDVKFTDISSLLDSSARLPRPQQTHKSNTLYSCEGRIIAIEYHASDLCFHITNELPLLQTRGLAPERVLQLHIITSKNFAYFFNRSSAYLQRQPLEEKYTQLAQFLGHSFKFNITSSLTLFPDTTVALQIWCPIECTFRELQQQLAHPKVAAAPDSGSLDCAINATVNPLRLLAAQNGVTVKKEEDNDDDAGAVPTS
notes: called full-length WT Cdc13 in the text; The vector encodes a 5'-SUMO-His6 tag and a 3'-FLAG tag for purification; The monomer mass seen was ~105 kDa; also called WT Cdc13
stoichiometry N [1]: 2

B2: Tel50G (ssDNA)
DNA: GTGTGGGTGTGGTGTGGGTGTGGTGTGGGTGTGTGGGTGTGGTGTGGGTG
binding result (Cdc13 WT [2]): binds
binding result (Cdc13-L91R [3]): binds

B3: IR700-Tel30G (ssDNA)
DNA: CGCCATGCTGATCCGTGTGGTGTGTGTGGG
IC50 (Cdc13-L91R [4]): 31.6 nM
IC50 (Cdc13 WT [5]): 0.89 nM
